The assay deals with PDL1 on the surface of TC-1 cells (murine (TC-1 murine tumor cell line)) (UniProt Q9EP73). The assay can be described thus: flow cytometry on TC-1 cells, isotype background control. (In flow cytometry, cells or beads pass a laser one at a time.)
Chain of UniProt Q9EP73 (Q9EP73 19-290): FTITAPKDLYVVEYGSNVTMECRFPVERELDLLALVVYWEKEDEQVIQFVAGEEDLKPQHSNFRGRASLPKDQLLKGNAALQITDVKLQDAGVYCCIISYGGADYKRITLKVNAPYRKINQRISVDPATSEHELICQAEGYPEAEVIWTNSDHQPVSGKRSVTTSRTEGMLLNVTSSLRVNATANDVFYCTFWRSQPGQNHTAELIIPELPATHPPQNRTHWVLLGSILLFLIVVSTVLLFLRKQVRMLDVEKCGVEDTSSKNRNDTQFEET

Substance PE-conjugated isotype control antibody displayed a median fluorescent intensity (MFI) of 184 MFI.
